# Test results taken from IntAct's records for PubMed 30262834.
# Biological target: lrrt2_human LRRTM2 (UniProt O43300)
# Sequence (O43300 whole entry): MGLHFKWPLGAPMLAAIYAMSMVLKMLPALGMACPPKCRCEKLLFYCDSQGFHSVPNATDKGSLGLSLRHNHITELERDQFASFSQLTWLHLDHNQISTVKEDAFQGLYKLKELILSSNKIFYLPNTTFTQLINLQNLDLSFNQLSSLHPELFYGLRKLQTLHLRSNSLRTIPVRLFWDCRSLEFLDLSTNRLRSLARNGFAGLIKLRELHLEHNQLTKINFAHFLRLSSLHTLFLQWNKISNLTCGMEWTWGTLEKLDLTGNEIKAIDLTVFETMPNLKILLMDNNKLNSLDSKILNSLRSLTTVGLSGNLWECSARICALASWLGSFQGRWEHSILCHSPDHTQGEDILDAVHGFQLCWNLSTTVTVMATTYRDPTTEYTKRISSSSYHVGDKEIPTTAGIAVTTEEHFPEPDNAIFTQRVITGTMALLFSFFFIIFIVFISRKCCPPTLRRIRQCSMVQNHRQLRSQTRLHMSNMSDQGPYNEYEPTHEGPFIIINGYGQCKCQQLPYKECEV
# Neurexin-1-beta (Homo sapiens), P58400-1 D141A, sequence (P58400 other isoform, or with tags, fused parts or gaps D141A): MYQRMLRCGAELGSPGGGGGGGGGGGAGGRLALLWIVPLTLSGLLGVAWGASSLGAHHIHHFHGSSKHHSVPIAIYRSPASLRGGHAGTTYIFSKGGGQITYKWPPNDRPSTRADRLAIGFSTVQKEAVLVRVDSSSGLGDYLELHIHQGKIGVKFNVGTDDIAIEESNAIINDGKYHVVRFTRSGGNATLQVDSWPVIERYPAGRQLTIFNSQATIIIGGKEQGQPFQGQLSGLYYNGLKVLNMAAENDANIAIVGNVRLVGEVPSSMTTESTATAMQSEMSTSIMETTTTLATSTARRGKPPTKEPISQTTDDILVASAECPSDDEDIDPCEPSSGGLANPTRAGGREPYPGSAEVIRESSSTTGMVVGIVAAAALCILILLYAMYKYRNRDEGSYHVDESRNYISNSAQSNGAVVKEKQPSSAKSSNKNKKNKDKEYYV
substance,measurement,value
"Neurexin-1-beta (Homo sapiens), P58400-1 D141A",effect of a mutation on the interaction,disrupting interaction strength
